Assay results reported in article PMC10537722, “Proline Dehydrogenase and Pyrroline 5 Carboxylate Dehydrogenase from Mycobacterium tuberculosis: Evidence for Substrate Channeling” (Pathogens, 2023).

What was measured:
[1] = target: T1, ∆^1-pyrroline-5-carboxylate (P5C) dehydrogenase (PruA) (Mycobacterium tuberculosis, UniProt O50443); assay: biochemical
T1 construct: gene rocA

[2] = test system: NC(=O)c1ccc[n+]([C@@H]2O[C@H](COP(=O)([O-])OP(=O)(O)OC[C@H]3O[C@@H](n4cnc5c(N)ncnc54)[C@H](O)[C@@H]3O)[C@@H](O)[C@H]2O)c1; assay: purified protein; details: pH 7.0; 25.0 °C; varied: cofactor
O=C(O)C1CCC=N1 = assay: purified protein; details: NAD^+; pH 7.0; 25.0 °C

T1 sequence (O50443 1-543): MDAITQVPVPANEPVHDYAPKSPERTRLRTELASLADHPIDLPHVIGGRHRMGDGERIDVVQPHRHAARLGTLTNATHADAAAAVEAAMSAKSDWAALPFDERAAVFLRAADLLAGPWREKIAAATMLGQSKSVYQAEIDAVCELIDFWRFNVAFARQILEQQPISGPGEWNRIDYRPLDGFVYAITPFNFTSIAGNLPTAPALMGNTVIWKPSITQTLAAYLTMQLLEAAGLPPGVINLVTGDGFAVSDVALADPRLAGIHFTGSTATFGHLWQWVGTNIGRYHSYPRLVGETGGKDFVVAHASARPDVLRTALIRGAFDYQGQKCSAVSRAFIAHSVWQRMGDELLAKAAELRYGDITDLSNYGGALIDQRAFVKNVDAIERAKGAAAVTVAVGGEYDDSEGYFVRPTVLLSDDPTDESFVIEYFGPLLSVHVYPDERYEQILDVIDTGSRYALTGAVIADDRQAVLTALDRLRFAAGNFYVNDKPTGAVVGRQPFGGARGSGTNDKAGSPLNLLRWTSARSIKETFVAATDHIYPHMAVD

Compound | Ki [1] | Km [2] | Km (O=C(O)C1CCC=N1) | kcat (O=C(O)C1CCC=N1) | kcat/Km (O=C(O)C1CCC=N1)
O=C(O)[C@@H]1CCCN1 [L-proline] | 6.7 mM |  |  |  | 
∆^1-pyrroline-5-carboxylate (P5C) dehydrogenase (PruA) (Mycobacterium tuberculosis H37Rv) |  | 33 ± 4.3 µM | 120 ± 0.02 µM | 1.1 s⁻¹ | 8500 M⁻¹ s⁻¹
